Experimental data: ChEMBL document CHEMBL1156468, “Crystal structures of Saccharomyces cerevisiae N-myristoyltransferase with bound myristoyl-CoA and inhibitors reveal the functional roles of the N-terminal region” (J Biol Chem, 2007)
Positions count from the first letter of the chain named. Names may count otherwise.

Legend:
[1] = substrate: CC(C)C[C@H](NC(=O)CN)C(=O)N[C@@H](Cc1ccccc1)C(=O)N[C@@H](C)C(=O)N[C@@H](CO)C(=O)N[C@@H](CCCCN)C(=O)N[C@@H](CC(C)C)C(=O)N[C@@H](Cc1ccccc1)C(=O)O; assay: Activity of Saccharomyces cerevisiae NMT D23A mutant assessed as production of coenzyme A after 1 hr
[2] = substrate: CC(C)C[C@H](NC(=O)CN)C(=O)N[C@@H](Cc1ccccc1)C(=O)N[C@@H](C)C(=O)N[C@@H](CO)C(=O)N[C@@H](CCCCN)C(=O)N[C@@H](CC(C)C)C(=O)N[C@@H](Cc1ccccc1)C(=O)O; assay: Ratio of kcat to Km for Saccharomyces cerevisiae NMT D23A mutant
[3] = substrate: CC(C)C[C@H](NC(=O)CN)C(=O)N[C@@H](Cc1ccccc1)C(=O)N[C@@H](C)C(=O)N[C@@H](CO)C(=O)N[C@@H](CCCCN)C(=O)N[C@@H](CC(C)C)C(=O)N[C@@H](Cc1ccccc1)C(=O)O; assay: Activity of Saccharomyces cerevisiae NMT D23K mutant assessed as production of coenzyme A after 1 hr
[4] = substrate: CC(C)C[C@H](NC(=O)CN)C(=O)N[C@@H](Cc1ccccc1)C(=O)N[C@@H](C)C(=O)N[C@@H](CO)C(=O)N[C@@H](CCCCN)C(=O)N[C@@H](CC(C)C)C(=O)N[C@@H](Cc1ccccc1)C(=O)O; assay: Ratio of kcat to Km for Saccharomyces cerevisiae NMT D23K mutant
[5] = substrate: CC(C)C[C@H](NC(=O)CN)C(=O)N[C@@H](Cc1ccccc1)C(=O)N[C@@H](C)C(=O)N[C@@H](CO)C(=O)N[C@@H](CCCCN)C(=O)N[C@@H](CC(C)C)C(=O)N[C@@H](Cc1ccccc1)C(=O)O; assay: Activity of Saccharomyces cerevisiae NMT D106K mutant assessed as production of coenzyme A after 1 hr
[6] = substrate: CC(C)C[C@H](NC(=O)CN)C(=O)N[C@@H](Cc1ccccc1)C(=O)N[C@@H](C)C(=O)N[C@@H](CO)C(=O)N[C@@H](CCCCN)C(=O)N[C@@H](CC(C)C)C(=O)N[C@@H](Cc1ccccc1)C(=O)O; assay: Ratio of kcat to Km for Saccharomyces cerevisiae NMT D106K mutant
[7] = substrate: CC(C)C[C@H](NC(=O)CN)C(=O)N[C@@H](Cc1ccccc1)C(=O)N[C@@H](C)C(=O)N[C@@H](CO)C(=O)N[C@@H](CCCCN)C(=O)N[C@@H](CC(C)C)C(=O)N[C@@H](Cc1ccccc1)C(=O)O; assay: Activity of Saccharomyces cerevisiae NMT D108A mutant assessed as production of coenzyme A after 1 hr
[8] = substrate: CC(C)C[C@H](NC(=O)CN)C(=O)N[C@@H](Cc1ccccc1)C(=O)N[C@@H](C)C(=O)N[C@@H](CO)C(=O)N[C@@H](CCCCN)C(=O)N[C@@H](CC(C)C)C(=O)N[C@@H](Cc1ccccc1)C(=O)O; assay: Ratio of kcat to Km for Saccharomyces cerevisiae NMT D108A mutant
[9] = substrate: CC(C)C[C@H](NC(=O)CN)C(=O)N[C@@H](Cc1ccccc1)C(=O)N[C@@H](C)C(=O)N[C@@H](CO)C(=O)N[C@@H](CCCCN)C(=O)N[C@@H](CC(C)C)C(=O)N[C@@H](Cc1ccccc1)C(=O)O; assay: Activity of Saccharomyces cerevisiae NMT D106A/D108A mutant assessed as production of coenzyme A after 1 hr
[10] = substrate: CC(C)C[C@H](NC(=O)CN)C(=O)N[C@@H](Cc1ccccc1)C(=O)N[C@@H](C)C(=O)N[C@@H](CO)C(=O)N[C@@H](CCCCN)C(=O)N[C@@H](CC(C)C)C(=O)N[C@@H](Cc1ccccc1)C(=O)O; assay: Ratio of kcat to Km for Saccharomyces cerevisiae NMT D106A/D108A mutant
[11] = substrate: CC(C)C[C@H](NC(=O)CN)C(=O)N[C@@H](Cc1ccccc1)C(=O)N[C@@H](C)C(=O)N[C@@H](CO)C(=O)N[C@@H](CCCCN)C(=O)N[C@@H](CC(C)C)C(=O)N[C@@H](Cc1ccccc1)C(=O)O; assay: Activity of Saccharomyces cerevisiae NMT D22A/D23A mutant assessed as production of coenzyme A after 1 hr
[12] = substrate: CC(C)C[C@H](NC(=O)CN)C(=O)N[C@@H](Cc1ccccc1)C(=O)N[C@@H](C)C(=O)N[C@@H](CO)C(=O)N[C@@H](CCCCN)C(=O)N[C@@H](CC(C)C)C(=O)N[C@@H](Cc1ccccc1)C(=O)O; assay: Ratio of kcat to Km for Saccharomyces cerevisiae NMT D22A/D23A mutant
[13] = substrate: CC(C)C[C@H](NC(=O)CN)C(=O)N[C@@H](Cc1ccccc1)C(=O)N[C@@H](C)C(=O)N[C@@H](CO)C(=O)N[C@@H](CCCCN)C(=O)N[C@@H](CC(C)C)C(=O)N[C@@H](Cc1ccccc1)C(=O)O; assay: Activity of Saccharomyces cerevisiae NMT D108K mutant assessed as production of coenzyme A after 1 hr
[14] = substrate: CC(C)C[C@H](NC(=O)CN)C(=O)N[C@@H](Cc1ccccc1)C(=O)N[C@@H](C)C(=O)N[C@@H](CO)C(=O)N[C@@H](CCCCN)C(=O)N[C@@H](CC(C)C)C(=O)N[C@@H](Cc1ccccc1)C(=O)O; assay: Ratio of kcat to Km for Saccharomyces cerevisiae NMT D108K mutant

B1: Glycylpeptide N-tetradecanoyltransferase (Saccharomyces cerevisiae S288c), P14743 D23A (protein)
chain: MSEEDKAKKLENLLKLLQLNNDATSKFTQEQKKAMKDHKFWRTQPVKDFDEKVVEEGPIDKPKTPEDISDKPLPLLSSFEWCSIDVDNKKQLEDVFVLLNENYVEDRDAGFRFNYTKEFFNWALKSPGWKKDWHIGVRVKETQKLVAFISAIPVTLGVRGKQVPSVEINFLCVHKQLRSKRLTPVLIKEITRRVNKCDIWHALYTAGIVLPAPVSTCRYTHRPLNWKKLYEVDFTGLPDGHTEEDMIAENALPAKTKTAGLRKLKKEDIDQVFELFKRYQSRFELIQIFTKEEFEHNFIGEESLPLDKQVIFSYVVEQPDGKITDFFSFYSLPFTILNNTKYKDLGIGYLYYYATDADFQFKDRFDPKATKALKTRLCELIYDACILAKNANMDVFNALTSQDNTLFLDDLKFGPGDGFLNFYLFNYRAKPITGGLNPDNSNDIKRRSNVGVVML
[1]
  Km: 21.4 µM
  kcat: 2.71 s⁻¹
[2]
  kcat/Km: 1.27 ×10⁵ /M/s

B2: Glycylpeptide N-tetradecanoyltransferase (Saccharomyces cerevisiae S288c), P14743 D23K (protein)
chain: B1 chain with A23K
[3]
  Km: 50.2 µM
  kcat: 3.64 s⁻¹
[4]
  kcat/Km: 7.26 ×10⁴ /M/s

B3: Glycylpeptide N-tetradecanoyltransferase (Saccharomyces cerevisiae S288c), P14743 D106K (protein)
chain: B1 chain with A23D, D106K
[5]
  Km: 30.6 µM
  kcat: 2.65 s⁻¹
[6]
  kcat/Km: 8.65 ×10⁴ /M/s

B4: Glycylpeptide N-tetradecanoyltransferase (Saccharomyces cerevisiae S288c), P14743 D108A (protein)
chain: B1 chain with A23D, D108A
[7]
  Km: 7.89 µM
  kcat: 1.94 s⁻¹
[8]
  kcat/Km: 2.45 ×10⁵ /M/s

B5: Glycylpeptide N-tetradecanoyltransferase (Saccharomyces cerevisiae S288c), P14743 D106A,D108A (protein)
chain: B1 chain with A23D, D106A, D108A
[9]
  Km: 38.5 µM
  kcat: 2.55 s⁻¹
[10]
  kcat/Km: 6.62 ×10⁴ /M/s

B6: Glycylpeptide N-tetradecanoyltransferase (Saccharomyces cerevisiae S288c), P14743 D22A,D23A (protein)
chain: B1 chain with D22A
[11]
  Km: 92.4 µM
  kcat: 3.83 s⁻¹
[12]
  kcat/Km: 4.15 ×10⁴ /M/s

B7: Glycylpeptide N-tetradecanoyltransferase (Saccharomyces cerevisiae S288c), P14743 D108K (protein)
chain: B1 chain with A23D, D108K
[13]
  Km: 13.9 µM
  kcat: 1.94 s⁻¹
[14]
  kcat/Km: 1.4 ×10⁵ /M/s
